Measurements from patent US9187525B2, “Methods of treating ophthalmic diseases using NPR-B agonists” (Shire Orphan Therapies GmbH, dated 2015).
Numbered stars: 1 amine (or outer) side, 2 acyl side, 3 side chain; on linkers, the order of the positions; unused ones are H or OH. Square brackets hold non-standard residues; d marks the D form. Primed or numbered codes have the meaning given here. * marks the point of attachment. Pro(trans-4-NH2) = O=C([C@@H]1C[C@@H](N[*:3])CN1[*:1])[*:2]; Sni = (S)-nipecotic acid, O=C([C@H]1CCCN([*:1])C1)[*:2]; Phe(4-NO2) = N[C@@H](Cc1ccc([N+](=O)[O-])cc1)C(=O)O; Pro(trans-4-Ph) = O=C(O)[C@@H]1C[C@@H](c2ccccc2)CN1; Cpp = rac-(3R,4S)-cis-methanoproline; Pro(3S-OH) = O=C(O)[C@H]1NCC[C@@H]1O; cisHyp = O=C(O)[C@@H]1C[C@H](O)CN1; dDap(Me2) = CN(C)C[C@@H](N)C(=O)O; Hyp = O=C(O)[C@@H]1C[C@@H](O)CN1; NMeL = CN[C@@H](CC(C)C)C(=O)O; β3hK = NCCCC[C@H](N)CC(=O)O; ΔPro = O=C(O)[C@@H]1C=CCN1; Ac6c = NC1(C(=O)O)CCCCC1; Octanoyl = CCCCCCCC(=O)*; Thz = O=C(O)[C@@H]1CSCN1; Api = NC1(C(=O)O)CCNCC1; Pip′ = not defined here; Dap = NC[C@H](N)C(=O)O; leu = not defined here; NHcHex = C1CCC(N*)CC1

T1: natriuretic peptide receptor-B (human)
T1 chain: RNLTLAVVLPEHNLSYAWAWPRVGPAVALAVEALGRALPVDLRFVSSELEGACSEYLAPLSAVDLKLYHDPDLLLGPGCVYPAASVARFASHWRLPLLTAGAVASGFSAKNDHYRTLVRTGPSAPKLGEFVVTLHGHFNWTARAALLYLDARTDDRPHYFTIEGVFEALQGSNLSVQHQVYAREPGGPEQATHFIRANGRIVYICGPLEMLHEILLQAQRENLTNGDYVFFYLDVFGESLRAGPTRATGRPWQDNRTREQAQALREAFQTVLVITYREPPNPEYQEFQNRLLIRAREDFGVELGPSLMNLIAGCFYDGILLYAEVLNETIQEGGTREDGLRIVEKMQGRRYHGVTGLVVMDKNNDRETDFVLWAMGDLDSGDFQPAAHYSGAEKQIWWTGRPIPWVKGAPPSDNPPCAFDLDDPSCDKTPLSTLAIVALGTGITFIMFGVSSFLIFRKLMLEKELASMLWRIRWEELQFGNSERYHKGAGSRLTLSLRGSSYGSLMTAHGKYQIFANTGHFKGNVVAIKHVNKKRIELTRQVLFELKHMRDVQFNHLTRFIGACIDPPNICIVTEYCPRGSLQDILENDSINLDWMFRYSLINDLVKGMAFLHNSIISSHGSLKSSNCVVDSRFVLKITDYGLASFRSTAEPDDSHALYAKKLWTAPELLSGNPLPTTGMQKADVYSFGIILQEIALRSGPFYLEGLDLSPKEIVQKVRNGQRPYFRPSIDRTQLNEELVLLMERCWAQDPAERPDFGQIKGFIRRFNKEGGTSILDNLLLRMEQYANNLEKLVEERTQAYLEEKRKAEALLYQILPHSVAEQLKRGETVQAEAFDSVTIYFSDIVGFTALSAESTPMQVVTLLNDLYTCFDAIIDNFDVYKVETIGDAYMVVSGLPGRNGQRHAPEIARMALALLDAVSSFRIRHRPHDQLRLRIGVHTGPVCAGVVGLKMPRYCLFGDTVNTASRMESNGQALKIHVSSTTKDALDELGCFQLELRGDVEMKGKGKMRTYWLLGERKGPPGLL


Target: T1, natriuretic peptide receptor-B
Experiment: cell-based or functional assay

| Binder | EC50 group, cGMP in GTM-3 cells [µM] |
| --- | --- |
| Octanoyl-AF[leu]L[Hyp][NMeL]D[β3hK]I-NH2 (not fully specified (some residues); printed as Occ-ala-Phe-leu-Leu-Hyp-Nml-Asp-Bhk-Ile-NH2; reading uncertain) [JAL-1483] | ≤ 5 |
| Octanoyl-[dA]FXL[Pro(trans-4-NH2)][NMeL]DRI-NH2 (not fully specified (some residues); printed as Occ-ala-Phe-dap(1464)-Leu-Tap-Nml-Asp-Arg-Ile-NH2) [JAL-1463] | ≤ 1 |
| Octanoyl-AF[leu]L[Hyp][NMeL]D[ΔPro]I-NH2 (not fully specified (some residues); printed as Occ-ala-Phe-leu-Leu-Hyp-Nml-Asp-Dhp-Ile-NH2; reading uncertain) [JAL-1479] | ≤ 5 |
| XXFGLKLDRI (HELM PEPTIDE1{[CCCCCC(=O)[*:2]].[O=C1[C@@H](N[*:1])CCCCN1CC(=O)[*:2]].F.G.L.K.L.D.R.I.[am]}$$$$V2.0; SMILES CCCCCC(=O)N[C@H]1CCCCN(CC(=O)N[C@@H](Cc2ccccc2)C(=O)NCC(=O)N[C@@H](CC(C)C)C(=O)N[C@@H](CCCCN)C(=O)N[C@@H](CC(C)C)C(=O)N[C@@H](CC(=O)O)C(=O)N[C@@H](CCCNC(=N)N)C(=O)N[C@H](C(N)=O)[C@@H](C)CC)C1=O) [JAL-0656] | ≤ 15 |
| Octanoyl-AF[leu]L[Hyp][NMeL]D[Pro(3S-OH)]I-NH2 (not fully specified (some residues); printed as Occ-ala-Phe-leu-Leu-Hyp-Nml-Asp-H3p-Ile-NH2; reading uncertain) [JAL-1477] | ≤ 5 |
| Octanoyl-[dA]FXL[Pro(trans-4-NH2)][NMeL]DRI-NH2 (not fully specified (some residues); printed as Occ-ala-Phe-dap(6238)-Leu-Tap-Nml-Asp-Arg-Ile-NH2) [JAL-1461] | ≤ 5 |
| Octanoyl-[dA]FXL[Pro(trans-4-NH2)][NMeL]DRI-NH2 (not fully specified (some residues); printed as Occ-ala-Phe-dap(3846)2-Leu-Tap-Nml-Asp-Arg-Ile-NH2) [JAL-1462] | ≤ 5 |
| Octanoyl-AFLL[Hyp][NMeL]D[Pip′]I-NH2 (also: lower-case ala, leu: meaning not given here) [JAL-1438] | ≤ 5 |
| Octanoyl-[dA]F[dL]L[Hyp][NMeL]D[Pro(trans-4-Ph)]I-NH2 [JAL-1456] | ≤ 15 |
| Octanoyl-[Sni]F[leu]L[Hyp][NMeL]DPI-OH (reading uncertain; also: printed as Occ-Sni-Phe-leu-Leu-Hyp-Nml-Asp-Pro-Ile-OH) [JAL-1474] | ≤ 15 |
| Octanoyl-[dA]FXL[Pro(trans-4-NH2)][NMeL]DRI-NH2 (not fully specified (some residues); printed as Occ-ala-Phe-dap(6238)2-Leu-Tap-Nml-Asp-Arg-Ile-NH2) [JAL-1460] | ≤ 5 |
| XXFGLKLDRI (HELM PEPTIDE1{[CCCCCC(=O)[*:2]].[O=C(C1CCCN([*:1])C1)[*:2]].F.G.L.K.L.D.R.I.[am]}$$$$V2.0; SMILES CCCCCC(=O)N1CCCC(C(=O)N[C@@H](Cc2ccccc2)C(=O)NCC(=O)N[C@@H](CC(C)C)C(=O)N[C@@H](CCCCN)C(=O)N[C@@H](CC(C)C)C(=O)N[C@@H](CC(=O)O)C(=O)N[C@@H](CCCNC(=N)N)C(=O)N[C@H](C(N)=O)[C@@H](C)CC)C1) [JAL-0654] | ≤ 15 |
| Octanoyl-[dA]F[Api]L[Pro(trans-4-NH2)][NMeL]DPI-NH2 [JAL-1452] | ≤ 1 |
| Octanoyl-AF[leu]L[Hyp][NMeL]D[Dap]I-NH2 (not fully specified (some residues); printed as Occ-ala-Phe-leu-Leu-Hyp-Nml-Asp-Udp-Ile-NH2; reading uncertain) [JAL-1482] | ≤ 5 |
| Octanoyl-[dA]F[dL]L[Hyp][NMeL]D[Api]I-NH2 [JAL-1458] | ≤ 5 |
| Octanoyl-AFLL[Hyp][NMeL]D[Thz]I-NH2 (also: lower-case ala, leu: meaning not given here) [JAL-1442] | ≤ 5 |

The remaining lines, values ahead:

| EC50 group, cGMP in GTM-3 cells [µM] | Binder |
| --- | --- |
| ≤ 15 | Octanoyl-AFLL[Hyp][NMeL]D[Hyp]I-NH2 (also: lower-case ala, leu: meaning not given here) [JAL-1441] |
| ≤ 5 | Octanoyl-AF[Api]L[Hyp][NMeL]DPI-NH2 (also: lower-case ala: meaning not given here) [JAL-1451] |
| ≤ 5 | Octanoyl-[Sni]F[dL]L[Hyp][NMeL]DP[NHcHex] [JAL-1464] |
| ≤ 15 | Octanoyl-[dA]F[dL]L[Hyp][NMeL]D[Pro(trans-4-NH2)]I-NH2 [JAL-1459] |
| ≤ 15 | Octanoyl-[dA]F[dL]L[Hyp][NMeL]D[Ac6c]I-NH2 [JAL-1457] |
| ≤ 5 | Octanoyl-[Sni]F[leu]L[Hyp][NMeL]DPI-NHMe (reading uncertain; also: printed as Occ-Sni-Phe-leu-Leu-Hyp-Nml-Asp-Pro-Ile-(NH-CH3)) [JAL-1475] |
| ≤ 5 | Octanoyl-AF[leu]L[Hyp][NMeL]D[cisHyp]I-NH2 (not fully specified (some residues); printed as Occ-ala-Phe-leu-Leu-Hyp-Nml-Asp-Chy-Ile-NH2; reading uncertain) [JAL-1476] |
| ≤ 5 | Octanoyl-AFLL[Pro(trans-4-NH2)][NMeL]DPI-NH2 (also: lower-case ala, leu: meaning not given here) [JAL-1450] |
| ≤ 5 | Octanoyl-AFLL[Hyp][NMeL]D[Cpp]I-NH2 (also: lower-case ala, leu: meaning not given here) [JAL-1443] |
| ≤ 1 | Octanoyl-[dA]F[Ac6c]L[Pro(trans-4-NH2)][NMeL]DRI-NH2 [JAL-1454] |
| ≤ 5 | Octanoyl-[Sni][Phe(4-NO2)][leu]L[Hyp][NMeL]DRI-NH2 (reading uncertain; also: printed as Occ-Sni-Nif-leu-Leu-Hyp-Nml-Asp-Arg-Ile-NH2) [JAL-1486] |
| ≤ 1 | Octanoyl-[dA]F[dDap(Me2)]L[Pro(trans-4-NH2)][NMeL]DPI-NH2 [JAL-1453] |
